According to patent US20160207975A1 (published 2016):

Target: CGRP receptor (CALCRL:RAMP1) on CALCRL:RAMP1-CRE-bla Freestyle 293F cells (UniProt Q16602 23-461; O60894 27-148, limits assumed)
Assay: cell-based or functional assay

CGRP receptor (CALCRL:RAMP1) on CALCRL:RAMP1-CRE-bla Freestyle 293F cells, sequence (Q16602 23-461 limits assumed, chain 1 of 2): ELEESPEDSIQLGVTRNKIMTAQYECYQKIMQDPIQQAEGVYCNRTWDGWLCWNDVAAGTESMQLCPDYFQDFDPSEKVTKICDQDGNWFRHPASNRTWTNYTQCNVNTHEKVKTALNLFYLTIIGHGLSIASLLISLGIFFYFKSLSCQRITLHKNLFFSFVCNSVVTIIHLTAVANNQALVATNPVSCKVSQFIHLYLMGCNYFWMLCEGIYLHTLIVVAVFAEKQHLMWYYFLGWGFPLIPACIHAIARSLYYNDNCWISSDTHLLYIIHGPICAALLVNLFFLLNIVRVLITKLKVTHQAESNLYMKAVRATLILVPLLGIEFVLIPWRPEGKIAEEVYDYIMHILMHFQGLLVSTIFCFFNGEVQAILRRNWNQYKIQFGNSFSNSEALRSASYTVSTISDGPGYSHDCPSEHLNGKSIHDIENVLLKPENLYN
CGRP receptor (CALCRL:RAMP1) on CALCRL:RAMP1-CRE-bla Freestyle 293F cells, sequence (O60894 27-148 limits assumed, chain 2 of 2): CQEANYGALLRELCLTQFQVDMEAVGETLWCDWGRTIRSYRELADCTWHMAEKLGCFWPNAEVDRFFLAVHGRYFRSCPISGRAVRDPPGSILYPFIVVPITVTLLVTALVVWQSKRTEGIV

percent activation of the CGRP receptor (CALCRL:RAMP1-CRE-bla Freestyle 293F agonist screen), EC50: ~105 nM
B1: ACX017 (SEQ ID NO:1) (peptide)
peptide: H-ACDTATCVLGRLSQELHRLQTYPRTNVGSKAF-NH2
modifications: ends and bridges not checked
